The record followed here is patent US20100260668A1 (published 2010).

Assay [1] has as its target T1, DLL4 ECD/His tag (R&D 1506-D4-050) (UniProt Q9NR61 27-529).
T1 construct: extracellular domain; Bought antigen coated on the ELISA plate; not shown: His tag
The assay is described as follows: direct bind ELISA, DLL4 on plate; DLL4 VD N-term.; HC Short, LC Short. (In general: An ELISA detects its analyte on a solid surface through an enzyme-linked reagent.)

The target in assay [2] is T2, human DLL4 extracellular domain (human, UniProt Q9NR61 27-529, biotin label in the Notch-1 competition ELISA (sites not given)). The assay is described as follows: cell-based or functional assay.
Assay [3] deals with T3, human DLL4 on 293G-human DLL4 cells (human, UniProt Q9NR61 27-685).
T3 construct: whole, on cells; no method paragraph describes this FACS assay
The assay is described as follows: FACS: inhibition of Notch1 binding to 293G-human DLL4 cells (competitor Notch1).

Assay [4] addresses T4, VEGF (biotinylated VEGF; VEGF165) (UniProt P15692-4 27-191, biotinylated (sites not given)).
T4 construct: the method paragraph says only 'biotinylated VEGF'
In words: competition ELISA: DVD-Ig pre-incubated with 2 nM biotinylated VEGF, then on coated VEGFR1 ECD-Fc (competitor VEGFR1-Fc).

In assay [5] the target is T2, human DLL4 extracellular domain. The assay is described as follows: competition ELISA: 14 nM biotin-labelled human DLL4 ECD pre-mixed with DVD-Ig, then on coated human Notch-1 (competitor Notch-1).
Protocol: Plates were then washed once with wash buffer (PBS, 0.05% Tween 20) and blocked with 200 μl/well blocking buffer (D-PBS, 1% BSA, 1 mM CaCl₂, 0.05% Tween 20) for 1 hour at 25° C.
The target of another assay is T5, VEGF (UniProt P15692 27-191, limits assumed).
T5 construct: Bought antigen coated on the ELISA plate; also called vascular endothelial growth factor
T5 sequence (P15692 other isoform, or with tags, fused parts or gaps limits assumed): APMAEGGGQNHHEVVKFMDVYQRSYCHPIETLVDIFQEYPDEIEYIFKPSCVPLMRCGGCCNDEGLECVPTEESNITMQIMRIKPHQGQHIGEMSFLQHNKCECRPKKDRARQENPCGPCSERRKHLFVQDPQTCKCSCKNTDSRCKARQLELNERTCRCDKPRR
In words: direct bind ELISA, antigen on plate; C-terminal VD.

Another assay has as its target T6, PlGF (UniProt P49763-2 21-149, limits assumed).
T6 construct: Bought antigen coated on the ELISA plate; also called Placental GF; placental growth factor
T6 sequence (looked up): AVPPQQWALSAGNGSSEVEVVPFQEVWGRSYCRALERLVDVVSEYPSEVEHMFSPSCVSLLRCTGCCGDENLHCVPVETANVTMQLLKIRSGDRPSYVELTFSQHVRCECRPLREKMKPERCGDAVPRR
The assay is described as follows: direct bind ELISA, antigen on plate; N-terminal VD.

T4 sequence (P15692 other isoform, or with tags, fused parts or gaps limits assumed): as the sequence (P15692 other isoform, or with tags, fused parts or gaps limits assumed) above
Protocol for PlGF: Enzyme Linked Immunosorbent Assays to screen for antibodies that bind a desired target antigen were performed as follows. […] Plates were washed four times with PBS containing 0.02% Tween 20. Plates were blocked by the addition of 300 μL/well blocking solution (non-fat dry milk powder, various retail suppliers, diluted to 2% in PBS) for ½ hour at room temperature. Plates were washed four times after blocking with PBS containing 0.02% Tween 20.
Plates were washed 4 times with PBS containing 0.02% Tween 20.

B1: DVD467 (bispecific antibody, human IgG1, kappa)
heavy: not shown
light: DIQMTQSPSSLSASVGDRVTITCRASQDVSTAVAWYQQKPGKAPKLLIYSASFLYSGVPSRFSGSGSGTDFTLTISSLQPEDFATTYYCQQSYTGTVTFGQGTKVEIKRTVAAPDIQMTQSPSSLSASVGDRVTITCRASQVIRRSLAWYQQKPGKAPKLLIYAASNLASGVPSRFSGSGSGTDFTLTISSLQPEDFATYYCQQSNTSPLTFGQGTKVEIKRTVAAPSVFIFPPSDEQLKSGTASVVCLLNNFYPREAKVQWKVDNALQSGNSQESVTEQDSKDSTYSLSSTLTLSKADYEKHKVYACEVTHQGLSSPVTKSFNRGEC
notes: DVD-Ig; outer AB015 (DLL4), inner AB071 (VEGF); HC short, LC short linker; also called DVD467H; DVD467L
What is called EC50 is the midpoint of the concentration-response curve. Higher therefore signals a need for much substance. B1 displayed an EC50 in assay [1] of 0.54 nM.

B2: DVD476 (VEGF (seq. 1) N-terminal / DLL4 (seq. 1) C-terminal DVD-Ig, long HC linker, short LC linker) (bispecific antibody, human IgG1, kappa)
heavy: not shown
light: DIQMTQSPSSLSASVGDRVTITCSASQDISNYLNWYQQKPGKAPKVLIYFTSSLHSGVPSRFSGSGSGTDFTLTISSLQPEDFATYYCQQYSTVPWTFGQGTKVEIKRTVAAPDIQMTQSPSSLSASVGDRVTITCRASQDVSTAVAWYQQKPGKAPKLLIYSASFLYSGVPSRFSGSGSGTDFTLTISSLQPEDFATTYYCQQSYTGTVTFGQGTKVEIKRTVAAPSVFIFPPSDEQLKSGTASVVCLLNNFYPREAKVQWKVDNALQSGNSQESVTEQDSKDSTYSLSSTLTLSKADYEKHKVYACEVTHQGLSSPVTKSFNRGEC
notes: also called DVD476H/DVD476L
The term IC50 denotes the point on the concentration scale where inhibition reaches its midpoint. Low values mean greater potency, high ones weaker potency. Consider B2, for which the “DVD-Ig Inhibition of sFlt1 (IC50, nM)” value in assay [2] worked out at 1.68 nM. For the same molecule, the IC50 in assay [3] was 15.1 nM; in assay [4], 2.4 nM; in assay [5], 4.9 nM.

B3: DVD589 (bispecific antibody, human IgG1, kappa)
heavy: not shown
light: DIVLTQSPDSLAVSLGERVTMNCKSSQSLLNSGMRKSFLAWYQQKPGQSPKLLIYWASTRESGVPDRFTGSGSGTDFTLTISSVQAEDVAVYYCKQSYHLFTFGSGTKLEIKRTVAAPDIQMTQSPSSLSASVGDRVTITCRASQDVSTAVAWYQQKPGKAPKLLIYSASFLYSGVPSRFSGSGSGTDFTLTISSLQPEDFATYYCQQSYTTPPTFGQGTKVEIKRTVAAPSVFIFPPSDEQLKSGTASVVCLLNNFYPREAKVQWKVDNALQSGNSQESVTEQDSKDSTYSLSSTLTLSKADYEKHKVYACEVTHQGLSSPVTKSFNRGEC
notes: HC linker long, LC linker short; also called DVD589VH; DVD589VL
On to B3, for which the values for the EC50 with VEGF and with PlGF were 1360 nM and 0.12 nM, respectively.

B4: DVD599 (bispecific antibody, human IgG1, kappa)
heavy: not shown
light: DIVLTQSPDSLAVSLGERVTMNCKSSQSLLNSGMRKSFLAWYQQKPGQSPKLLIYWASTRESGVPDRFTGSGSGTDFTLTISSVQAEDVAVYYCKQSYHLFTFGSGTKLEIKRTVAAPSVFIFPPDIQMTQSPSSLSASVGDRVTITCRASQVIRRSLAWYQQKPGKAPKLLIYAASNLASGVPSRFSGSGSGTDFTLTISSLQPEDFATYYCQQSNTSPLTFGQGTKVEIKRTVAAPSVFIFPPSDEQLKSGTASVVCLLNNFYPREAKVQWKVDNALQSGNSQESVTEQDSKDSTYSLSSTLTLSKADYEKHKVYACEVTHQGLSSPVTKSFNRGEC
notes: DVD-Ig, N-terminal PlGF (AB047), C-terminal VEGF (AB071); HC linker short, LC linker long; also called DVD599VH; DVD599VL
In the case of B4, the EC50 with VEGF stood at 664 nM; with PlGF, 0.23 nM.

B5: DVD445 (bispecific antibody, human IgG1, kappa)
heavy: not shown
light: DIVMTQSPDSLAVSLGERATISCRASESVDNYGISFMKWFQQKPGQPPKLLIYAASNQGSGVPDRFSGSGSGTDFTLTISSLQAEDVAVYYCQQSKEVPWTFGGGTKVEIKRTVAAPDIQMTQSPSSLSASVGDRVTITCRASQVIRRSLAWYQQKPGKAPKLLIYAASNLASGVPSRFSGSGSGTDFTLTISSLQPEDFATYYCQQSNTSPLTFGQGTKVEIKRTVAAPSVFIFPPSDEQLKSGTASVVCLLNNFYPREAKVQWKVDNALQSGNSQESVTEQDSKDSTYSLSSTLTLSKADYEKHKVYACEVTHQGLSSPVTKSFNRGEC
notes: DVD-Ig; outer AB069 (DLL4), inner AB071 (VEGF); HC short, LC short linker; also called DVD445H; DVD445L
In assay [1], B5 registered an EC50 of 0.17 nM.

B6: DVD597 (bispecific antibody, human IgG1, kappa)
heavy: not shown
light: DIVLTQSPDSLAVSLGERVTMNCKSSQSLLNSGMRKSFLAWYQQKPGQSPKLLIYWASTRESGVPDRFTGSGSGTDFTLTISSVQAEDVAVYYCKQSYHLFTFGSGTKLEIKRTVAAPSVFIFPPDIQMTQSPSSLSASVGDRVTITCRASQDVSTAVAWYQQKPGKAPKLLIYSASFLYSGVPSRFSGSGSGTDFTLTISSLQPEDFATYYCQQSYTTPPTFGQGTKVEIKRTVAAPSVFIFPPSDEQLKSGTASVVCLLNNFYPREAKVQWKVDNALQSGNSQESVTEQDSKDSTYSLSSTLTLSKADYEKHKVYACEVTHQGLSSPVTKSFNRGEC
notes: HC linker short, LC linker long; also called DVD597VH; DVD597VL
On to B6, for which the EC50 is 31.1 nM in the assay with VEGF and 0.17 nM in the assay with PlGF.

B7: DVD470 (VEGF (seq. 1) N-terminal / DLL4 (seq. 1) C-terminal DVD-Ig, long HC linker, long LC linker) (bispecific antibody, human IgG1, kappa)
heavy: not shown
light: DIQMTQSPSSLSASVGDRVTITCSASQDISNYLNWYQQKPGKAPKVLIYFTSSLHSGVPSRFSGSGSGTDFTLTISSLQPEDFATYYCQQYSTVPWTFGQGTKVEIKRTVAAPSVFIFPPDIQMTQSPSSLSASVGDRVTITCRASQDVSTAVAWYQQKPGKAPKLLIYSASFLYSGVPSRFSGSGSGTDFTLTISSLQPEDFATTYYCQQSYTGTVTFGQGTKVEIKRTVAAPSVFIFPPSDEQLKSGTASVVCLLNNFYPREAKVQWKVDNALQSGNSQESVTEQDSKDSTYSLSSTLTLSKADYEKHKVYACEVTHQGLSSPVTKSFNRGEC
notes: also called DVD470H/DVD470L
Take B7: the “DVD-Ig Inhibition of sFlt1 (IC50, nM)” value in assay [2] is 1.02 nM. In addition, the IC50 is 38.3 nM in assay [3], 2.7 nM in assay [4] and 2.82 nM in assay [5].

B8: DVD482 (VEGF (seq. 1) N-terminal / DLL4 (seq. 1) C-terminal DVD-Ig, short HC linker, long LC linker) (bispecific antibody, human IgG1, kappa)
heavy: not shown
light: B7 light
notes: also called DVD482H/DVD482L
As to B8, the “DVD-Ig Inhibition of sFlt1 (IC50, nM)” value in assay [2] stood at 1.11 nM. Besides, the values for the IC50 in assay [3], in assay [4] and in assay [5] were 16.3 nM, 1.7 nM and 2.65 nM, respectively.

B9: DVD591 (bispecific antibody, human IgG1, kappa)
heavy: not shown
light: DIVLTQSPDSLAVSLGERVTMNCKSSQSLLNSGMRKSFLAWYQQKPGQSPKLLIYWASTRESGVPDRFTGSGSGTDFTLTISSVQAEDVAVYYCKQSYHLFTFGSGTKLEIKRTVAAPDIQMTQSPSSLSASVGDRVTITCRASQVIRRSLAWYQQKPGKAPKLLIYAASNLASGVPSRFSGSGSGTDFTLTISSLQPEDFATYYCQQSNTSPLTFGQGTKVEIKRTVAAPSVFIFPPSDEQLKSGTASVVCLLNNFYPREAKVQWKVDNALQSGNSQESVTEQDSKDSTYSLSSTLTLSKADYEKHKVYACEVTHQGLSSPVTKSFNRGEC
notes: DVD-Ig, N-terminal PlGF (AB047), C-terminal VEGF (AB071); HC linker long, LC linker short; also called DVD591VH; DVD591VL
For the molecule B9, the EC50 is 1170 nM with VEGF and 0.13 nM with PlGF.

B10: DVD471 (DLL4 (seq. 1) N-terminal / VEGF (AB070) C-terminal DVD-Ig, long HC linker, long LC linker) (bispecific antibody, human IgG1, kappa, L234A L235A)
heavy: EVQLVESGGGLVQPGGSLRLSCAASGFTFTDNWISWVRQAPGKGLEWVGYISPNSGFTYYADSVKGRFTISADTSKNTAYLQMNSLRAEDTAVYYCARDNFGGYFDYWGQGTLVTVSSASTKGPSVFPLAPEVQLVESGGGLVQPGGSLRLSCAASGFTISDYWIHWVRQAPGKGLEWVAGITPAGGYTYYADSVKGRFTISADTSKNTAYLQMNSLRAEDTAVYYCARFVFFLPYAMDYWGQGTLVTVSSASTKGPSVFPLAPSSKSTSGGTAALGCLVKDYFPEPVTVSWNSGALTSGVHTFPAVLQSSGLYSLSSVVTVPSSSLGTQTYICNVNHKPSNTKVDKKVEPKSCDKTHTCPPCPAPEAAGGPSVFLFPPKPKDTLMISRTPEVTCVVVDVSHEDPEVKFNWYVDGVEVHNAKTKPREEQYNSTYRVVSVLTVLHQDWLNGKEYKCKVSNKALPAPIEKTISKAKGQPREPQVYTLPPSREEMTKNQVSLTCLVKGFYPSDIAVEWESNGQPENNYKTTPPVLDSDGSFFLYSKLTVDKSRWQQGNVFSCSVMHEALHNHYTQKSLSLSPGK
light: DIQMTQSPSSLSASVGDRVTITCRASQDVSTAVAWYQQKPGKAPKLLIYSASFLYSGVPSRFSGSGSGTDFTLTISSLQPEDFATTYYCQQSYTGTVTFGQGTKVEIKRTVAAPSVFIFPPDIQMTQSPSSLSASVGDRVTITCRASQDVSTAVAWYQQKPGKAPKLLIYSASFLYSGVPSRFSGSGSGTDFTLTISSLQPEDFATYYCQQSYTTPPTFGQGTKVEIKRTVAAPSVFIFPPSDEQLKSGTASVVCLLNNFYPREAKVQWKVDNALQSGNSQESVTEQDSKDSTYSLSSTLTLSKADYEKHKVYACEVTHQGLSSPVTKSFNRGEC
notes: also called DVD471H/DVD471L
As to B10, in assay [2], the “DVD-Ig Inhibition of sFlt1 (IC50, nM)” value worked out at 1.92 nM. Besides, the IC50 in assay [3] amounted to 4.1 nM; in assay [4], 5.46 nM; in assay [5] it was 2.66 nM.
